27 sequences from the domain aggregation screens of Martell et al. (2025) can be followed below.
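Further: 20 min heating vs room temperature control held 20 min.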

The nature of the data set: soluble fraction after stress (log2 fold change); higher = more stays soluble; pooled small domains, quantitative proteomics. The conditions noted are these: stress: 75 degC.
On to “HMETGEDSLRRYFNSLPGSASKREILEDNPTVSQRTTERILQKLQAEGFIEKVGAARATRYRKVKQ”, for which the “soluble fraction (log2)” value was determined as 0.259.
Consider “HMETGELQQILEDVFSKNIGIVQDKREAAFSILMGMIMAKSRGRADGALVSTLLKKKLTEFLATSDQVR”, for which the “soluble fraction (log2)” value is -0.0719.
In the case of “HMETGNEDYRVGKELAYDGNYKAATIYLMKSIKDDPNNPDAFNMLGFSHRKLGNNDEAYIYYNKALEL” it was -0.275.
In the case of “HMETKKEIIEAINELEEKYRNAIYLTSIEKLSYEETSKILGQSLSNTKNLIHRGKQQLRKILIKK” it was -0.772.
In the case of “HMETLEDHRKKTRQQLFDALSHLLQTSTFESLTMAKIAEEAGVGRTAVYNHFQDKEALLLAFITYETGQ” it was -1.74; in that of “HMETLETYTSRLRQLEDITNNFKGVDKSFAIQAGREIRVMVVPEQVSDADMILMARDISKAIEAELEYPGQ”, 0.0937; in that of “HMETLGADLRALRKSRGLTLLDMAESLGRSVGWLSQVERDLSDPSISDLREIAELLGVPISMLFRH”, -2.83.
Turning to “HMETLKEMDSKGAINASEVNVREGAGTSSSKMYSLSKGASVDVTGIKGDWYRVHTSKGTGYVLAKYVTLVS”, the “soluble fraction (log2)” value was -0.29.
In the case of “HMETLYGQIVNDIMEKIESNAWPVGYVIPTESDFQKQYGVSRATVRNAILKLAHLGYLVRKKGSGTYVTRP” it was -1.25; in that of “HMETPEIPGLTPRQVEIMLLVGKGYSNKEIARFLTISPETVKTHLKEVFLRFGLRNRVEAIDFTRQNGL”, -0.656; in that of “HMETPLSAADFKIVFGEEYEIGTDANGLPKMGSRINRQLQNRFLTWASVNKRKATMSAYQDWVASDPAAQ”, -0.323.
“HMETQVKVPNVVGMTQSKAIAKLKESKLDYEVQEQKHDGDKGKVVDQSEAEGTYVDRGTKVIIYVSTGE”: the “soluble fraction (log2)” value is -0.437.
As to “HMETSIQFIRLEIGHNHPWVNQTLKEIPTIPGTLIAAVLRGDEDQAIIPKGDTLLKEGDSVIIGAKEYQD”, the “soluble fraction (log2)” value is -1.42.
For the sequence “HMETSLVIQIDGAVNSPGIYQVTPGTRIFEALELAGGVREDAQTEALNLALPVYDGQRISIPSSFA”, the “soluble fraction (log2)” value was -0.153.
For “HMETTVSYSGVVTASVLRIRKGPSVSSSVAGTLKKGTGVSIIFEDNGWGKLADGSGWVSLTYIKKNSTP”, the “soluble fraction (log2)” value is -2.33.
In the case of “HMETWDQAYETIKQNILNLTYPPGMPLTEAKLAEELGMSRSPVRTALRMLQTDGLIVTDYYKSMTVKEI” it was -1.95; in that of “HMETWKLYKRAYKKYYARYMKGNMSEADFKAWATQAAADRDAAIEQITPEIDAALKAQIIEQLREKLNR”, -1.11; in that of “HMEVAAAENYRSKLSSFAKDTISVWQTELLLGTISDDDKASLTEWMAYIKALQVVDTSDPESITWPTEPT”, -1.14.
In the case of “HMEVAASEQRDNLWALARRVLSGEQYDVLYLRYVEDFSVAQIADVVGKTQTHVKVLLFRGRNNLGSRLRS” it was 0.0441.
In the case of “HMEVENAQLLARLTPQEHRVFERVVAGLSNREIGSEMDISIKTVEVHRARVMRKLEANSVAELVRFHIHN” it was -2.37.
In the case of “HMEVGDTYLGKVTRVSSFGAFIEVLPGKEGLMRQNDAGEGGMPEVGDEVMVRVMEVDHLGRINLSGKLDD”, the “soluble fraction (log2)” value is -0.102.
In the case of “HMEVGKRIAEIRKENRMSQEQFGQLFHVTRQTVSNWENAKSYPDLQTLVKISELFEITMDELLK” it was -1.45; in that of “HMEVKVSGHLEAIGGVYHMKLSWIDDAGKRRRKSKSTGLAERGNKKRANDMLIDFMREQEAEIAASGD”, -2.05.
In the case of “HMEVLSKRGSTGTEVINIQKKLKNWGYYTGSVDGIYGKLTEEAVRYFQRTNGLTVDGIAGKNTLAAMGIA” it was -0.619.
Turning to “HMEVNLEPLIALLRKHRDLDLSGYSKSTLGRRITYFMGLNKISSIDELGRRLAEDDLLFQEFLDKLT”, the “soluble fraction (log2)” value is -0.264.
In the case of “HMEVSLEDKMDYLTNYATTHKNFSFRNLLESSSGKIEVIVTFLAILELMKMGRINISQEHIFDDIIIESRI” it was -2.68.
In the case of “HMEVSTRQVRAALRDIIEAEDKKRPLSDEAITARLREQGLPVARRTVAKYREQMGILAARLRK” it was -0.662.
